From the domain aggregation screens of Martell et al. (2025) come the findings set out here.

The nature of this data set: soluble fraction after stress (log2 fold change); higher = more stays soluble; pooled small domains, quantitative proteomics. The conditions noted are these: stress: 75 degC.
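Also: 20 min heating vs room temperature control held 20 min.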

Take “HMGSGKGAAHTILGISADASDDEIKAAWRKLVQENHPDKLVSQGLPDEFVQAATDRLRLINTAYQSMLNRP”: the “soluble fraction (log2)” value was -0.0948. To “HMGSGLAAAEKIRKAHPEIKIVVATSLIDTQVLARAKAVGADSLWYKDGDEGTLMQVVRRTMAGDHIFP” belongs -0.038; to “HMGSIGAMLSSPELYGKLATNPATRGFLSQPDFIAMLTDVQKNPDKFGSYMSDPRMMQVLSVALG”, -0.231; to “HMGSIRDIIVQYLSKFDDPQPAAKIVEYVQQYRDTTESSIRSSMGSGDQFVQFSGGLYGLKDKTYAAWYSI”, -0.916. With “HMGSLKISNPVKDTLWIQGVDGLKSIEIYSSTGQLVKTILGNQGDVSSLPKGVYFLKINTPSESLTAKIIK”, the “soluble fraction (log2)” value is -1.28.

With “HMGSLPPPKDGTTIYVVKPGDSLWRISGKFFGNPLFWPRLWEINPNIDNPNKIYPGDVISLKP”, the “soluble fraction (log2)” value turned out to be 0.24. With “HMGSLVKLQSAAELHQAGRSAEAVPILLEVLATNPRLVDGWEILANALEKLGRLDEALAALKKTVALSPPG”, the “soluble fraction (log2)” value was -1.55. To “HMGSNENTIREYFDSLIASASKREIMDANPTMSQRTVERILQKLQAEGYVEKIGAARSTRYRRA” belongs -0.0404; to “HMGSQLYTLEVEADEKISLIENNPLLIQKIYLKDNNLFSYKIASSSKTEIASIEKELEKNPSIKRLETA”, -0.086; to “HMGSQQIEEGMRRLVASGALRPGASVPSVRDLARDLQVNPATVVRAYQRLVDAGLLVVRRGEGTFVAE”, -1.77.

For “HMGSSLLSPKEREVLQLLAGNLSNKQIALAMGVSDETIKWHLRNLFGKLNAGGRKHLIDRARMLGLLAAA”, the “soluble fraction (log2)” value was -1.61. For the sequence “HMGSVHDAATDRIREMILGGQFEPGERLRQDDLATSLGVSTMPVREALRQLQAEGLVVFYPRKGAVVAR”, the “soluble fraction (log2)” value is 0.168. In the case of “HMGTAEDYLLPRRAEILSIIRDHEFANFDLIRRRFLAVNERTLRYDLKKLSDLGLIKKLGKTRGVYYRAAK”, the “soluble fraction (log2)” value was -1.84. For “HMGTAVKAPMPGTILKVNVTAGQSVKAGDIMFILEAMKMENEIVAPSDGTVSQVVAAKGSSVATDDVLAYL”, the “soluble fraction (log2)” value is -0.586. “HMGTDGLKDIVLEILKEHPNQLAELIDGKQKVLGFLVGQVMKKTNGAANPKEVNEIIQGEIKK”: the “soluble fraction (log2)” value was 0.179. “HMGTELSYSEFLNKVEAGEVTNVTIRGPEITFQTGNSSYTTYAPDDPKLIEHLTAKGVAIKAGP”: the “soluble fraction (log2)” value is 0.608. As to “HMGTGELLVHVIGAVHSPGVVRLPTGARVVDAIDAAGGAREDAQTEQLNLARLVDDGEQVRVPVVGESVD”, the “soluble fraction (log2)” value was 0.081. The figure for “HMGTGIKQVNVVSVIGQDEETAKTTLTNLGLKVNVTYATSTSDNGKVTKQSIDAGKTVDEGTSVTITVNKV” is at least 1.04; for “HMGTHSAEQVRAAIRAIVAAEDAANPLSDARITELLAMRGIAAARRTVMKYREQLGIPSSAKRRR” it is -1.94; for “HMGTHVVQEGEYLDLIIEKTIPGSPIRKDLLRKAFVKLNPSAFGGRGNPNYIFARKKLKVPSVEDLKAVIF” it is 0.127. “HMGTIEEYSKYLINQYFDSLKKPMDAMTTSEKIEIVKSLDKKGIFNLKGSVGELAKRFNTSEKTIYRYLSS”: the “soluble fraction (log2)” value is -0.202. “HMGTKRWELPRRVQQMATQHGKSISTAAAEELVSRSGENTRMLDNDLVKLAQMVEAPQIELADVERWIVR”: the “soluble fraction (log2)” value is 0.207. Turning to “HMGTLPSLAPSGEKTVRLPNLAGWSLRETMEILQKGGLQLLPIGSGISFKQSPPPGTTLNEGDAVTVWF”, the “soluble fraction (log2)” value was determined as 0.00884. “HMGTNTTGWIKIADDWKYIDSNGEYTVNDWRQSADGGWYYLGYNGNMLKNQTTPDGYYVDAEGLWDGMSPA”: the “soluble fraction (log2)” value was -0.54.

In the case of “HMGTPEQVVVSSVLKETNEIVLKWPADGFMAKYKMDNLNLNFEPVHGQGVMGYFIGSRLIKLELV”, the “soluble fraction (log2)” value is -1.43. To “HMGTPSAEELAFSAQKGNAVMRIMEIREKYIENGGQISDEERNEIERLIAIYYPKASIFDYLPMMG” belongs -0.367. To “HMGTSFEDIDRAVKSVRKPETDEAEKLHAGKTFKDIAETELFQKLTESFAGISDRVNEVIDLYTARAAE” belongs 0.188.

Take “HMGTSSAEIAAELRAQIFAGELRPGEMLPSAREITGTWNVAIATASRVHALLRSEGLATPVPGVGTVVAT”: the “soluble fraction (log2)” value came to 0.223.

With “HMGTTAWISTKTANGSVNIRTGPGTGYGVIGWALNGDKLEVLSRGTSWHYVKLVKNGKIGYVSASYVSFTQ”, the “soluble fraction (log2)” value was -3.41.

On to “HMGTTKGVVDVTVPNGRASQHVKLVVIDDDGGRVVYDGTNAPGDRIVKSVSGSGNVRVQIYLNNALVQEQS”, for which the “soluble fraction (log2)” value was -0.491.

For “HMGTTMLEVPNFVGEVFKEIDPEKYPNLRLVDSDYTYSNEYEAGKVISQDPVARTQVAEGSTVKLVIS”, the “soluble fraction (log2)” value was 0.319. To “HMGTVISVDKARSIALAKVPGASANDIRIHLDRDDGRQIYEGEIYYNRMEYEFEIDASTGTIIEWSAEHW” belongs -2.33. For “HMGTVQSVDRALLLLSEIGREPGGLVDLSTRVRLATSTTGRILATLEHAGAVVRGDDGIYHIGPLVHGMVS”, the “soluble fraction (log2)” value is -2.04. Consider “HMGTYSKQDLLQLIGRYPDGIGKREINLAFSKGTKIRNLLNIELNELLNERLITLSQGGLYIKP”, for which the “soluble fraction (log2)” value was -1.92. In the case of “HMGVAFAPVEKIKHTKTGNELYAVKLAGRVEAEVFGQLRQKAKEYDGYYSKFSRAFLFSTPEDAEAFRAE”, the “soluble fraction (log2)” value was -0.294. The figure for “HMGVDIAEHDGQPAVSIRKGAAESVAQWVKDQGGTFPQEVEMTVQNVARAGGTPLVVARGRDVLGVIYLKD” is -0.0119.

As to “HMGVDKLTPREREVLALMAQGASNREIEGKLVLTAGAVSKHVANVFMKLGFSPEDENRRVKAVLAWLRTK”, the “soluble fraction (log2)” value is -2.86. For the sequence “HMGVGIEALAVEVDRIRQVLTGGGALSDIQLFSQLKALGEVKTALSSMTDPRARELEKRVAQLLEASLRT”, the “soluble fraction (log2)” value was -0.708. To “HMGVKHKHKGAGELLAALRTMFPNSSVSTLRKMLTQGRVVLNGEVVHRAKHELTDGDTIEVLERQRAER” belongs 0.0384.

For the sequence “HMGVKIELNENEQAIFAAMQKQVEAVLPDLRAQFADMSNKAWDNSVKTLTKNNLLKVSKEAEILFIRL”, the “soluble fraction (log2)” value was -0.939.

As for “HMGVKTDKYYYQMATETRVNKHYGLSNQYIATLISEYPRSPLIPNASILSKKNNADLALIDQSINQR”, the “soluble fraction (log2)” value was -0.515. The figure for “HMGVLSPRQSQILALVAQGLGNREIAERLHIAPTTARDHVQAIMRRLNVNSRAAAAVMGVKLGLI” is -1.92; for “HMGVNEGVNKLFKTIQETPGKRMPYYALATDVPEKTIERWLKQLREEGKIEFKGSAKTGGYFVIDK” it is -0.000624; for “HMGVRDIRIFERNNSFFVNAEIRGEAQLSVPITRTDYQLFKENKIDALSLVEKYYAEELNASNEMK” it is 0.234. With “HMGVSLNELAYRRFKQALVTLSYKPGEYLNTAQVMNDLDMGRTPINQAIHRLANEGLLQVIPRKGVMVS”, the “soluble fraction (log2)” value is -2.24.

With “HMGVTDLFAVLGFPRSPWLDAEELKQRHHALMADEASANSSPTILNEARRTLQNPALRIRHFLALEFPDH”, the “soluble fraction (log2)” value was -0.425. Consider “HMGVYDLIYLGYGINVEKEELVDQNISIIRRYANIFDPNGDIKGSTNPTYASNTAVLFNEAKFIIDGYD”, for which the “soluble fraction (log2)” value is -3.7. The figure for “HMGWQPDPLTTRERLVAELATQASNAQIAEQLHLSVRTVEGHLAHVYTKLGITTRRELPAALAGAR” is -1.55; for “HMGWTTPAGIAVGMDKSVLQDAYGKEDDTFQDKGILYYQYFVHPSRMSGLSFGIKNDKIVSITAYMD” it is -2.02.

As for “HMGYDDLEPFDANGRLRWSDQELVLAFGRHRGATLRTLELNDPSYLRWLLSGNGPLEQQDIQRLEQILES”, the “soluble fraction (log2)” value was -1.55.

Take “HMGYDLLFQQALGFHEQGRLNEAENIYRQILETAPNNPDILNLLGLIAQQKGLHAQAVDYFYQAIRL”: the “soluble fraction (log2)” value was -1.89. To “HMGYDVAEVKFRLIKLLRDSKIGISGVEISERLGINRVTMTKYLNIFSAEGVIGEKNIGNVNLWFVYEGIE” belongs -1.62; to “HMGYQLSLEAQSQLKALGLTSEYITRILDEADNRQPIPGTSRTVYSLNGYQVEFSHSDQQVIRIARG”, -1.14; to “HMGYSDEIGEFIKKLRTENHLTQKEFADKYGVTYQAVSKWENGKNLPDMSLIKQMSEDFNIGIDELLDGEK”, -0.00865. The figure for “HMGYTLDVAHGVTEDMNFSEAFATAREEVGPGGIFYWHGKPYGTYYENEWNAMDEEDKAEYWDAVGRTTA” is 0.0888; for “HMHANSDVEQLMQMGIQRLNFQRYSDALLIFNQIIENFPDYAEAWNKRATLHYLLGNLDKSIADIEQTLE” it is -2.45; for “HMHAPIAELKKVFKEEFADQEVTVRQLAGSVLLSGNVKTAELRENLESVAKQFFPRVINNLKLI” it is -0.444. To “HMHDAKAEIIRLSALLTEYQRSYYIDGHSQVSDLEYDRLFDRLVALETSHPELREADSPTQRV” belongs -0.917. For the sequence “HMHDAKTQLQEEAARRGLPAPVYTRIGQEGPDHAPRFRVRADVGPHQAEAVAGSLKLAQAEAARAILRQMP”, the “soluble fraction (log2)” value is 0.132. In the case of “HMHDITPAVAETFKQLRAERGLSLSQAAQLTGVSKAMLGQIERGQSSPTVSTLWKIATGFNVAFSVFL”, the “soluble fraction (log2)” value was -2.56. To “HMHDLGEQIIEKLRASGGISTLTDKSDPDAIYRQFKVSKKKYKQALGTLYKSRRITLAPNQIKLA” belongs -0.293. “HMHDPLATLTPREHEVMSLMAEGRTNAAIAQALVIGTGAVEKNVTSIFQKLGLDDSGTDHRRVLAVLAWLQ”: the “soluble fraction (log2)” value is -2.13.

As for “HMHDRRSGKVKWYSDRKGYGFIDLDGGEVFIHRSALIAFGALRLQAEDIITITVRETDRGLVVDQLFGIER”, the “soluble fraction (log2)” value is -1.66. With “HMHEAILNQIRNEELMLYIGELSDAQQDVILLKYFHQMTFKEIAESFSIPISTVKTRHTAALKKLSTLWK”, the “soluble fraction (log2)” value was -0.36. With “HMHESLAEVAARKLRALIVTGELAPGERVTEAGLTDLLEISRTPAREAIRILSSEGLLVVFPNRGAEVV”, the “soluble fraction (log2)” value was -0.94. To “HMHEYSDIEHRILDAAREVFIRKGYDSATMGDIALLAGMSRTSVNYYFRNKERLFEAIFEEII” belongs -1.91; to “HMHFDQILAHAMDERGMNAVQLASLTGLSSGAISRYLAGDRQPTVYSIQQIAKALGVSADYLVG”, -1.19; to “HMHGEAEFLDATAVVMEKLNPGGLVKIKGEIWQAVSKDGHTIQEGEKVRVFERQGITLLVGHF”, -0.876.

Regarding “HMHGTIHSAAYGGDIEAVKKFLAAGADVNANGGGRTPLDLAIQVKNTEIADLLRKHGGKTGDELKA”, the “soluble fraction (log2)” value worked out at 0.547.
